# Data: article PMC9519624
# Molecular target: IPO11 (Importin-11) (UniProt Q9UI26)
# Test: co-immunoprecipitation, western blot
# Settings: reference: wild-type RPRM; sites S98
substance,measurement,value
RPRM (Reprimo) (from UniProt Q9NS64) RPRM S98A,binding against the reference,stronger
